Experiments:
UGT92K1 = target: T1, UGT92K1 (Ginkgo biloba, UniProt A0A2Z2PC79); assay: HPLC glucosylation assay, product identified with authentic standard; type: biochemical; conditions: 100 μM substrate; 4 mM UDP-glucose; Tris-HCl pH 7.0; 30°C; product genistein 7-O-glucoside
T1 construct: gene UGT7
T1 sequence (A0A2Z2PC79 1-496): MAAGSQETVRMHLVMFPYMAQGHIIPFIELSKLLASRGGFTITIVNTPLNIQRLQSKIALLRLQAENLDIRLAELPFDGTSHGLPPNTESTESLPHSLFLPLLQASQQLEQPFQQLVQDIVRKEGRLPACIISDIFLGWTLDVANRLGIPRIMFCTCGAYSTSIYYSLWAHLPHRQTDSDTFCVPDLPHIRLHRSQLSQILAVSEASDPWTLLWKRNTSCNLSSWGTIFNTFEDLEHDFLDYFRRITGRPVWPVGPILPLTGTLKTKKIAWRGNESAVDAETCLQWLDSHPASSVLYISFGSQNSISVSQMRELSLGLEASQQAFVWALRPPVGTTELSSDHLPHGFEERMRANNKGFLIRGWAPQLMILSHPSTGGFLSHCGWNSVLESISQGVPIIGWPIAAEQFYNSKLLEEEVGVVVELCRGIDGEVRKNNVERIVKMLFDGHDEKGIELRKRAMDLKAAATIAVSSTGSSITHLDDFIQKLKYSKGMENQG

purified protein [1] = substrate: O=c1cc(-c2ccc(O)cc2)oc2cc(O)cc(O)c12; assay: purified protein; conditions: 4 mM UDP-glucose, Tris-HCl pH 7.0, 30°C
purified protein [2] = substrate: COC(=O)c1cc(O)c(O)c(O)c1; assay: purified protein; type: biochemical, Ginkgo biloba; conditions: 4 mM UDP-glucose, Tris-HCl pH 7.0, 30°C
purified protein [3] = substrate: O=C(O[C@@H]1Cc2c(O)cc(O)cc2O[C@@H]1c1cc(O)c(O)c(O)c1)c1cc(O)c(O)c(O)c1; assay: purified protein; type: biochemical, Ginkgo biloba; conditions: 4 mM UDP-glucose, Tris-HCl pH 7.0, 30°C
purified protein [4] = substrate: O=C(O[C@@H]1Cc2c(O)cc(O)cc2O[C@H]1c1cc(O)c(O)c(O)c1)c1cc(O)c(O)c(O)c1; assay: purified protein; type: biochemical, Ginkgo biloba; conditions: 4 mM UDP-glucose, Tris-HCl pH 7.0, 30°C
purified protein [5] = substrate: O=C(O[C@@H]1Cc2c(O)cc(O)cc2O[C@H]1c1ccc(O)c(O)c1)c1cc(O)c(O)c(O)c1; assay: purified protein; type: biochemical, Ginkgo biloba; conditions: 4 mM UDP-glucose, Tris-HCl pH 7.0, 30°C
purified protein [6] = substrate: O=c1c(-c2ccc(O)cc2)coc2cc(O)cc(O)c12; assay: purified protein; type: biochemical, Ginkgo biloba; conditions: 4 mM UDP-glucose, Tris-HCl pH 7.0, 30°C
purified protein [7] = substrate: O=c1c(O)c(-c2ccc(O)c(O)c2)oc2cc(O)cc(O)c12; assay: purified protein; type: biochemical, Ginkgo biloba; conditions: 4 mM UDP-glucose, Tris-HCl pH 7.0, 30°C
purified protein [8] = substrate: O=c1cc(-c2ccc(O)c(O)c2)oc2cc(O)cc(O)c12; assay: purified protein; type: biochemical, Ginkgo biloba; conditions: 4 mM UDP-glucose, Tris-HCl pH 7.0, 30°C

Question: With `O=c1c(-c2ccc(O)cc2)coc2cc(O)cc(O)c12` [genistein] as the molecule, how does the “HPLC glucosylation assay, product identified with authentic standard” value (UGT92K1) read?
Answer: The value was “recombinant UGT92K1 protein only displayed activity toward genistein”.

B1: UGT716A1 (Ginkgo biloba) (protein)
chain: MEMAGGYIMVVPFHGQGHVFPCLELCKQLAARGVAVTIVASRSIRSSLQSIANHDASGLGVRIMELREATSEEQDAHPGPFLTDTLQEPFEEMLNNLAAEAAPLPLCVIGDVMVGWVTTVCDKFHIPRVPFFTSSACSIAFEYALWKHRPLDLKEDEAFAVPGFPESMPIALSDTLHRAPHPPDHHQRNPPPFPRRGHPPPPDRGHPPPFGHGGPPHGPPHPPTGPDSNPRSPPWMNGLNESSGFLVNTCRELEAPFIEYMVKETEKPVWAVGPLLPSSFWEGSITHDSSFRSRKSNIDEKQCLEWLNSKPPASVLYVSFGSEVGPSEEEIRELAYGLEAAQKPFIWVLQAGHHHPHHQEEAEEQDLLPAGFEHRLEGRGLIIRGWAPQLLILSHPSTGGFLSHCGWNSTVESIGHGVPLLAWPIRGDQHYNAKLLVAELKVAAMIHMPKDDGMVRREEIAKGVDVLLGSEHGEKLRERAVSLKLRLASCSGSSQKMLDAFVVHLSSLQKKL
Question: What does the source list for B1?
Answer: Km (purified protein [1]): 230 µM; Km (purified protein [2]): 390 µM; Km (purified protein [3]): 43 µM; Km (purified protein [4]): 3.2 µM; Km (purified protein [5]): 14 µM; Km (purified protein [6]): 310 µM; Km (purified protein [7]): 10 µM; Km (purified protein [8]): 28 µM

— PMC5725826, “Characterization of UGT716A1 as a Multi-substrate UDP:Flavonoid Glucosyltransferase Gene in Ginkgo biloba” (Frontiers in Plant Science, 2017)
